According to IntAct's records for PubMed 15716268:

B1: NAD-dependent protein deacetylase sirtuin-1 (Mus musculus), Q923E4 (parent)
chain: MADEVALALQAAGSPSAAAAMEAASQPADEPLRKRPRRDGPGLGRSPGEPSAAVAPAAAGCEAASAAAPAALWREAAGAAASAEREAPATAVAGDGDNGSGLRREPRAADDFDDDEGEEEDEAAAAAAAAAIGYRDNLLLTDGLLTNGFHSCESDDDDRTSHASSSDWTPRPRIGPYTFVQQHLMIGTDPRTILKDLLPETIPPPELDDMTLWQIVINILSEPPKRKKRKDINTIEDAVKLLQECKKIIVLTGAGVSVSCGIPDFRSRDGIYARLAVDFPDLPDPQAMFDIEYFRKDPRPFFKFAKEIYPGQFQPSLCHKFIALSDKEGKLLRNYTQNIDTLEQVAGIQRILQCHGSFATASCLICKYKVDCEAVRGDIFNQVVPRCPRCPADEPLAIMKPEIVFFGENLPEQFHRAMKYDKDEVDLLIVIGSSLKVRPVALIPSSIPHEVPQILINREPLPHLHFDVELLGDCDVIINELCHRLGGEYAKLCCNPVKLSEITEKPPRPQKELVHLSELPPTPLHISEDSSSPERTVPQDSSVIATLVDQATNNNVNDLEVSESSCVEEKPQEVQTSRNVENINVENPDFKAVGSSTADKNERTSVAETVRKCWPNRLAKEQISKRLEGNQYLFVPPNRYIFHGAEVYSDSEDDVLSSSSCGSNSDSGTCQSPSLEEPLEDESEIEEFYNGLEDDTERPECAGGSGFGADGGDQEVVNEAIATRQELTDVNYPSDKS
partner: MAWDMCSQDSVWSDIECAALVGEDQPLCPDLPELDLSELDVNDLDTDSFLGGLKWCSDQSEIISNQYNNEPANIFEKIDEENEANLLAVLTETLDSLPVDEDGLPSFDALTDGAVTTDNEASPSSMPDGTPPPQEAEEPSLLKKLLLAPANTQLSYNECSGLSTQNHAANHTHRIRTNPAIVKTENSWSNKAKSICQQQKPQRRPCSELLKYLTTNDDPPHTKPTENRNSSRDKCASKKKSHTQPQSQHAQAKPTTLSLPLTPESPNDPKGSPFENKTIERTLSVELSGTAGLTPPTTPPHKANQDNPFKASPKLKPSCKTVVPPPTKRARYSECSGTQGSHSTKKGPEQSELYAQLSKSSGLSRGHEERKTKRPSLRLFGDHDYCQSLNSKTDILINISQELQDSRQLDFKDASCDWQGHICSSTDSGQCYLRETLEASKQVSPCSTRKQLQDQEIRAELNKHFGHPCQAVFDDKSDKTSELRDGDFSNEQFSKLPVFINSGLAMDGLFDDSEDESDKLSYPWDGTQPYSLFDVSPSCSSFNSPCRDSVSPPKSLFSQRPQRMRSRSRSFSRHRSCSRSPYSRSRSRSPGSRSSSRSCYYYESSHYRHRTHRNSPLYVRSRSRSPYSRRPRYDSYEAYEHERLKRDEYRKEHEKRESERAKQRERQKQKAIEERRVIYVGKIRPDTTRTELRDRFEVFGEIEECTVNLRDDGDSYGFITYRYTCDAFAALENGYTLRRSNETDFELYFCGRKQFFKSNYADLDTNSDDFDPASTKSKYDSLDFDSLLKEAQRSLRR

Variants of: B1
Settings: with prgc1_mouse Ppargc1a

Row | effect of a mutation on the interaction | Variant
1 | decreasing interaction | G261A
